Data reported in publication PMC3299805 (Immunity, 2012).
Like-named read-outs stand apart in the source and are kept apart here.

Columns and labels:
[1] = molecular target: T1, JAK2 catalytic domain, JAK2JH1 (UniProt O60674 840-1128); experiment: cell-based or functional assay
[2] = molecular target: T1, JAK2 catalytic domain, JAK2JH1; experiment: steady-state enzyme kinetics
[3] = molecular target: T1, JAK2 catalytic domain, JAK2JH1; experiment: steady-state enzyme kinetics; remark: listed apart in the source

T1 sequence (O60674 840-1128): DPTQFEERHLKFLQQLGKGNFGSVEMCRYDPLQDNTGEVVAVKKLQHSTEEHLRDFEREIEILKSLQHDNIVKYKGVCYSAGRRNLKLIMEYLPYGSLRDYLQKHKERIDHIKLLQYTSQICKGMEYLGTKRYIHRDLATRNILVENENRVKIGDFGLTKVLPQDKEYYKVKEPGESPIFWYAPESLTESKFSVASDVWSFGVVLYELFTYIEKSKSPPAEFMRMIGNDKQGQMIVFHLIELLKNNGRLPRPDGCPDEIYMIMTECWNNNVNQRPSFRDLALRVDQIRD

IC50 of inhibition of the kinase domain's activity (Figure 2A) [1]: 1500 nM | Ki [2]: 1500 ± 700 nM | Ki [3]: 1200 ± 300 nM
B1: SOCS3_(22–225)ΔPEST in complex with elongins B and C (complex)
chain 1: LKTFSSKSEYQLVVNAVRKLQESGFYWSAVTGGEANLLLSAEPAGTFLIRDSSDQRHFFTLSVKTQSGTKNLRIQCEGGSFSLQSDPRSTQPVPRFDCVLKLVHHYMGSGSGSGSAYYIYSGGEKIPLVLSRPLSSNVATLQHLCRKTVNGHLDSYEKVTQLPGPIREFLDQYDAPL
chain 2: MDVFLMIRRHKTTIFTDAKESSTVFELKRIVEGILKRPPDEQRLYKDDQLLDDGKTLGECGFTSQTARPQAPATVGLAFRADDTFEALCIEPFSSPPELPDVMKPQDSGSSANEQAVQ
chain 3: MYVKLISSDGHEFIVKREHALTSGTIKAMLSGPGQFAENETNEVNFREIPSHVLSKVCMYFTYKVRYTNSSTEIPEFPIAPEIALELLMAANFLDC
